Source: the Immune Epitope Database (IEDB)

Tests used:
HLA-B*57:01 [1] = assay: IEDB peptide-MHC binding, purified MHC/competitive/fluorescence; filed as Kd, often an IC50 or EC50 that approximates it; ≥ and ≤ were set here for values at or beyond the usual limits of such assays
HLA-B*18:01 = assay: as above
HLA-A*02:16 [2] = assay: as above; details: source organism: Listeria monocytogenes serotype 4b str. H7858
HLA-A*02:11 [3] = assay: as above; details: source organism: Listeria monocytogenes serotype 4b str. H7858
HLA-B*39:01 [4] = assay: as above; details: source organism: Listeria monocytogenes serotype 4b str. H7858
HLA-A*02:19 [5] = assay: as above; details: source organism: Listeria monocytogenes serotype 4b str. H7858
HLA-A*69:01 [6] = assay: as above; details: source organism: Listeria monocytogenes serotype 4b str. H7858
HLA-A*02:12 [7] = assay: as above; details: source organism: Listeria monocytogenes serotype 4b str. H7858
HLA-A*68:02 = assay: as above; details: source organism: Listeria monocytogenes serotype 4b str. H7858
HLA-A*02:01 [8] = assay: as above
HLA-A*24:03 [9] = assay: as above; details: source organism: Listeria monocytogenes serotype 4b str. H7858
HLA-B*15:01 [10] = assay: as above
HLA-B*46:01 = assay: as above
HLA-A*26:01 = assay: as above
HLA-B*27:03 = assay: as above
HLA-B*51:01 = assay: as above
HLA-A*02:03 [11] = assay: as above; details: source organism: Listeria monocytogenes serotype 4b str. H7858
HLA-A*03:01 [12] = assay: as above; details: source organism: Listeria monocytogenes serotype 4b str. H7858
HLA-B*57:01 [13] = assay: IEDB peptide-MHC binding, purified MHC/direct/fluorescence; filed as Kd, often an IC50 or EC50 that approximates it; ≥ and ≤ were set here for values at or beyond the usual limits of such assays; details: source organism: Yersinia pestis
HLA-C*15:02 = assay: as above; details: source organism: Yersinia pestis Nepal516
HLA-B*58:01 = assay: as above; details: source organism: Yersinia pestis
HLA-B*15:17 = assay: as above; details: source organism: Yersinia pestis
HLA-A*02:01 [14] = assay: IEDB peptide-MHC binding, purified MHC/competitive/fluorescence; ≥ and ≤ were set here for values at or beyond the usual limits of such assays
HLA-B*15:01 [15] = assay: as above; details: source organism: Sudan ebolavirus
HLA-A*11:01 = assay: as above
HLA-A*03:01 [16] = assay: as above
HLA-A*02:11 [17] = assay: IEDB peptide-MHC binding, purified MHC/direct/fluorescence; filed as Kd, often an IC50 or EC50 that approximates it; ≥ and ≤ were set here for values at or beyond the usual limits of such assays
HLA-A*69:01 [18] = assay: as above; details: source organism: Mycobacterium tuberculosis
HLA-A*02:16 [19] = assay: as above; details: source organism: Limestone Canyon virus
HLA-B*39:01 [20] = assay: as above; details: source organism: Orthohantavirus sinnombreense
HLA-A*02:19 [21] = assay: as above; details: source organism: Limestone Canyon virus
HLA-A*02:12 [22] = assay: as above; details: source organism: Limestone Canyon virus
HLA-A*24:03 [23] = assay: as above; details: source organism: Limestone Canyon virus
HLA-A*02:03 [24] = assay: as above; details: source organism: Limestone Canyon virus
HLA-A*03:01 [25] = assay: as above; details: source organism: Limestone Canyon virus
HLA-A*29:02 = assay: as above; details: source organism: Limestone Canyon virus
[26] = source organism: Listeria monocytogenes serotype 4b str. H7858
[27] = source organism: Sudan ebolavirus
[28] = source organism: Vaccinia virus WR
[29] = source organism: Zaire ebolavirus
[30] = source organism: Orthohantavirus sinnombreense

ITWPRTRHW
Kd (HLA-B*57:01 [1]; [26]): 0.033 µM | Kd (HLA-B*18:01; [26]): ≥ 20 µM | Kd (HLA-A*02:16 [2]): ≥ 20 µM | Kd (HLA-A*02:11 [3]): ≥ 20 µM | Kd (HLA-B*39:01 [4]): ≥ 20 µM | Kd (HLA-A*02:19 [5]): ≥ 20 µM | Kd (HLA-A*69:01 [6]): ≥ 20 µM | Kd (HLA-A*02:12 [7]): ≥ 20 µM | Kd (HLA-A*68:02): ≥ 20 µM | Kd (HLA-A*02:01 [8]; [26]): ≥ 20 µM | Kd (HLA-A*24:03 [9]): ≥ 20 µM | Kd (HLA-B*15:01 [10]; [26]): ≥ 20 µM | Kd (HLA-B*46:01; [26]): ≥ 20 µM | Kd (HLA-A*26:01; [26]): ≥ 20 µM | Kd (HLA-B*27:03; [26]): ≥ 20 µM | Kd (HLA-B*51:01; [26]): ≥ 20 µM | Kd (HLA-A*02:03 [11]): ≥ 20 µM | Kd (HLA-A*03:01 [12]): ≥ 20 µM

MAMPEYWQF
Kd (HLA-B*57:01 [13]): 0.0237 µM | Kd (HLA-C*15:02): ≥ 20 µM | Kd (HLA-B*58:01): 0.0017 µM | Kd (HLA-B*15:17): 0.0088 µM

MQISTIGIR
IC50 (HLA-A*02:01 [14]; [27]): ≥ 117 µM | IC50 (HLA-B*15:01 [15]): 26.5 µM | IC50 (HLA-A*11:01; [27]): 2.56 µM | IC50 (HLA-A*03:01 [16]; [27]): ≥ 145 µM

QGYSHGDIK
IC50 (HLA-A*11:01; [28]): 1.79 µM | IC50 (HLA-A*03:01 [16]; [28]): 12.1 µM

RMWEFLDRL
Kd (HLA-A*02:11 [17]; source organism: Mycobacterium tuberculosis str. Haarlem): ≤ 0.001 µM | Kd (HLA-A*69:01 [18]): 2.18 µM

TIYTSGKRS
IC50 (HLA-A*03:01 [16]; [29]): 37.4 µM

VVFSTSDGK
IC50 (HLA-A*02:01 [14]; [29]): ≥ 387 µM | IC50 (HLA-A*11:01; [29]): 1.03 µM | IC50 (HLA-A*03:01 [16]; [29]): 4.54 µM

YKSRCYVGL
Kd (HLA-A*02:16 [19]): ≥ 20 µM | Kd (HLA-A*02:11 [17]; source organism: Limestone Canyon virus): ≥ 20 µM | Kd (HLA-B*39:01 [20]): 0.293 µM | Kd (HLA-A*02:19 [21]): ≥ 20 µM | Kd (HLA-A*02:12 [22]): ≥ 20 µM | Kd (HLA-A*24:03 [23]): ≥ 20 µM | Kd (HLA-A*02:03 [24]): ≥ 20 µM | Kd (HLA-A*03:01 [25]): ≥ 20 µM | Kd (HLA-A*29:02): ≥ 20 µM | Kd (HLA-B*57:01 [1]; [30]): ≥ 20 µM | Kd (HLA-B*18:01; [30]): ≥ 20 µM | Kd (HLA-A*02:01 [8]; [30]): ≥ 20 µM | Kd (HLA-B*15:01 [10]; [30]): ≥ 20 µM | Kd (HLA-B*46:01; [30]): ≥ 20 µM | Kd (HLA-A*26:01; [30]): ≥ 20 µM | Kd (HLA-B*27:03; [30]): ≥ 20 µM | Kd (HLA-B*51:01; [30]): ≥ 20 µM
